Experimental data from the RNAGym collection of RNA variant scans (doi:10.7554/elife.80360).

B1: HDV Ribozyme (parent)
chain: GGCCGGCAUGGUCCCAGCCUCCUCGCUGGCGCCGGCUGGGCAACAUUCCGAGGGGACCGUCCCCUCGGUAAUGGCGAAUGGGACCCA

Variants of: B1
Experiment: self-cleavage, relative activity (ratio to wild type); higher = more cleavage; co-transcriptional

Variant	self-cleavage
C22G C61A	0.145
U23G C32G	0.237
U23A C86A	1.21
U23A C61G	1.08
U23A C61A	1.03
U23C G29C	0.0475
U23G G28C	0
C22A U37G	0.0462
C22A U37C	0.0723
C21U A56G	0.315
C21U A56U	0.3
C22U U46G	0.192
U23A C36U	0.671
U23A C64A	0.814
U23C A87G	0.855
C22A C49A	0.128
C22U G59C	0.566
C22G C63U	0.147
U23G C58U	0.582
U23G C58G	0.72
C22A A77G	0.38
U23C G53U	0.938
U23G U69C	0.598
C21U A87U	0.368

Variant	self-cleavage
C22A A78U	0
C22A A78G	0.0369
U23C C30U	0.755
U23C C30G	0.0437
C22U G25A	0
C22U G25U	0.0287
U23A G40U	0.769
C21U C24A	0.0997
C21U C24G	0.0545
U23G C75A	0
U23G C75G	0.111
U23G C33A	0
C22U C26A	0.997
C21U C62U	0.317
U23G A70U	0.492
U23G G76C	0.684
C22U C64A	0.786
U23A G73U	0.464
U23G G40U	0.431
C24A A43C	0.0415
U23G C36U	0.386
U23G C36G	0.252
C22G C64U	0.0536
C22A C36U	0.149

Variant	self-cleavage
C22A C36A	0.0536
C22A C36G	0.0354
C21U A77G	0.232
U23C G67A	0.927
C21U G73A	0.0955
C21U C30A	0.153
C21U G52U	0.182
C21U G34U	0.0354
U23A C24A	0.623
U23A C24U	0.199
C22G G68C	0.0354
C22U G39U	0.163
C22U G39C	0.115
U23C C61A	0.982
C22A C26U	0.578
C22U C86G	0.692
C22U A87U	0.644
C21U A71U	0.572
C22U G74C	0.157
U23A C41A	1.07
C21U G40C	0.166
U23G C61G	0.628
C22A C62G	0.212
C22U C32A	0.117

Variant	self-cleavage
C22A G25C	0
C22G U37A	0.0845
U23C U69G	0.739
U23C U69A	0.8
U23G G25U	0.0594
C22U U60C	0.767
C22U U60A	0.623
C22U U60G	0.944
U23A C62G	0.776
C22A G39A	0.0528
C22A G39U	0.166
C22A G39C	0.0437
U23G C41U	0.723
U23G G34U	0.0959
C22A G74A	0.0744
C21U G29U	0.0504
C21U G80U	0.0919
C22A U60A	0.326
C22G C75A	0
C22G C75G	0.181
C21U G68U	0.271
C21U G68A	0.252
C21U G68C	0.0875
U23G A45C	0.151

Variant	self-cleavage
U23G A45G	0.962
U23A A42C	0.253
C21U G31U	0.173
U23A U69G	0.911
U23G G29U	0
C21U C41U	0.267
C21U C41A	0.339
C22U C85G	0.811
C22U U79C	0.198
C22U U79G	0.178
C21U A45C	0.0256
C21U A45G	0.291
C21U C44A	0.437
C21U A78C	0.058
C21U A78U	0.148
U23G G55C	0.748
U23A C75U	0.346
U23C U72C	0.665
U23G U37G	0.217
U23G U37C	0.751
U23C C36U	0.365
U23C C85U	0.849
C22U G73C	0.256
C22U G73U	0.157

Variant	self-cleavage
C21U U37A	0.157
C22A G81A	0.205
C22A C33A	0.0314
C22A C33U	0.191
C22A A43G	0.151
C22G U79C	0.105
C22G U79G	0.0665
U23A U27C	0.575
C22U A51C	0.928
U23A G39C	0.204
C22G G31C	0.0852
C22A G54A	0.197
C22G U46G	0.0875
C22G U46A	0.0519
U23C G81C	0.249
U23G C62G	0.453
C22G U69C	0.0755
C22G U69A	0.095
C21U C85G	0.358
C22G A70C	0.0489
U23C G28A	0.0396
C22A C41G	0.175
U23G C66A	0.724
C22A A87G	0.33

Variant	self-cleavage
C22G C86U	0.0923
C22G C86A	0.106
C22U U27A	0.227
C22U U27C	0.312
U23G A87U	0.715
C22A G67U	0.259
C21U G39C	0.201
C22G C49U	0.0639
U23C U79G	0.883
U23A G76C	1.1
C22G G28A	0.0462
C22G G28U	0.0739
U23C C75G	0.148
U23G G52C	0.807
U23C G31U	0.151
U23C G31A	0.266
C21U A51C	0.332
C21U A51U	0.308
C21U A51G	0.228
C22G G59C	0.151
C22G A83C	0.0898
C22A C61U	0.237
U23C U27G	1.06
